Experimental data taken from the supplement of paper PMC9732359.
± gives the uncertainty stated by the source.

Test: protein stability index of a GFP-peptide fusion (yeast GPS) (PSI 1-4); higher = more stable; sorted into four equal gates, so the index is relative within each strain
Method in brief: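 Each library plasmid carries Cherry plus GFP with a tiled 17-residue yeast protein peptide fused downstream, and the pooled library was carried in yeast. Mid-log cultures in leucine-free medium were sorted into four equal gates by GFP/Cherry ratio. Reads from Illumina sequencing of PCR-amplified plasmids from each gate were assigned to strains by barcodes. Per peptide, the protein stability index was computed as the summed products of gate read frequency and gate number.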

Row | Sequence | protein stability index (doa10∆) | protein stability index (pdr5∆) | protein stability index (san1∆) | protein stability index (ubr1∆)
1 | QQLAYDLSISALLGDKI [RPN9] | 2.4 ± 0.052 | 2.67 ± 0.058 | 2.47 ± 0.075 | 2.15 ± 0.064
2 | QQLRTWKRQISYFLKLL [SRB8] | 1.63 ± 0.049 | 2.18 ± 0.066 | 1.93 ± 0.088 | 1.91 ± 0.039
3 | QQPHYIQRTRERKKSIG [DSN1] | 2.93 ± 0.067 | 2.85 ± 0.047 | 2.63 ± 0.048 | 2.69 ± 0.051
4 | QQQLYGGNNNNNSTGIA [SWI1] | 3.12 ± 0.076 | 3.15 ± 0.066 | 3.25 ± 0.053 | 3.11 ± 0.045
5 | QQQQQNTNNNDTIATSA [GAL11] | 2.457 ± 0.021 | 2.576 ± 0.02 | 2.478 ± 0.021 | 2.603 ± 0.018
6 | QQQQQQNGQQPPTTSNL [YML103C/NUP188] | 2.502 ± 0.02 | 2.737 ± 0.022 | 2.617 ± 0.019 | 2.661 ± 0.02
7 | QQREAVRQLYKGKKYQP [RPL35A] | 3.63 ± 0.29 | 3.42 ± 0.14 | 2.94 ± 0.14 | 2.83 ± 0.091
8 | QQTAKKLIPKLYRYRFD [ECM29] | 2.24 ± 0.13 | 2.35 ± 0.1 | 2.24 ± 0.14 | 1.21 ± 0.087
9 | QQYVAAGDLRALDTVTN [FAS1] | 2.88 ± 0.087 | 2.87 ± 0.081 | 2.92 ± 0.085 | 2.79 ± 0.13
10 | QRETSGMIVISMENYHL [SRB8] | 2.16 ± 0.04 | 1.99 ± 0.04 | 2.09 ± 0.042 | 2.35 ± 0.033
11 | QRGKWNLKYLDNSNVMT [RGR1] | 2.37 ± 0.093 | 2.49 ± 0.084 | 2.58 ± 0.077 | 1.95 ± 0.073
12 | QRRGPLVVYAEDNGIVK [RPL4A] | 3.43 ± 0.11 | 3.14 ± 0.095 | 2.46 ± 0.093 | 2.68 ± 0.11
13 | QRRTNNSGVGSAKGPEI [MED6] | – | – | 3.23 ± 0.19 | –
14 | QRRYVIKEKVQFNATIN [ITC1] | 1.47 ± 0.04 | 1.65 ± 0.033 | 1.63 ± 0.069 | 1.68 ± 0.024
15 | QRTTTGARVFGALKGAS [RPL5] | 2.88 ± 0.2 | 2.52 ± 0.2 | – | 3.05 ± 0.16
16 | QSAIRPAGQATQKRTHV [RPL4A] | 2.83 ± 0.09 | 2.8 ± 0.091 | 2.72 ± 0.085 | 2.5 ± 0.074
17 | QSALSQIIRLFYSKNRL [ISW2] | 2.62 ± 0.066 | 2.49 ± 0.059 | 1.87 ± 0.095 | 2.61 ± 0.053
18 | QSDLEIITQYVFESLEI [ARP9] | 2.35 ± 0.067 | 3.12 ± 0.07 | 2.52 ± 0.082 | 3.01 ± 0.08
19 | QSDSAKVEIKKVNSRDD [PRP28] | 3.08 ± 0.079 | 3.44 ± 0.067 | 2.73 ± 0.088 | 2.9 ± 0.12
20 | QSLLSLYFEIIHGVLKN [FAS2] | 2.37 ± 0.12 | 1.84 ± 0.076 | 2.14 ± 0.17 | 1.51 ± 0.045
21 | QSLNEMVKLIVMLCTLT [YJL039C/NUP192] | 2.52 ± 0.071 | 2.63 ± 0.057 | 2.81 ± 0.11 | 2.27 ± 0.058
22 | QSRLFINELVLENFKSY [SMC4] | 1.75 ± 0.053 | 2.34 ± 0.049 | 1.94 ± 0.078 | 2.27 ± 0.042
23 | QSSAIGALQESVEAYLV [HHT1] | 2.04 ± 0.077 | 2.81 ± 0.087 | 2.39 ± 0.11 | 2.15 ± 0.079
24 | QSTNLNRSAKNSKNDSA [YCS4] | 2.53 ± 0.05 | 2.63 ± 0.05 | 2.67 ± 0.064 | 2.79 ± 0.046
25 | QSTPVLLNHGERAELET [RPN1] | 3.03 ± 0.13 | 2.31 ± 0.12 | 2.02 ± 0.16 | 2.66 ± 0.078
26 | QTIMKMGPLSNIAQMIP [SRP54] | 2.6 ± 0.081 | 2.67 ± 0.068 | 2.58 ± 0.08 | 2.99 ± 0.07
27 | QTKDSVKEIVLPLFYDL [IRR1] | 2.42 ± 0.06 | 2.4 ± 0.057 | 2.6 ± 0.05 | 2 ± 0.035

Row | Sequence | protein stability index (doa10∆) | protein stability index (pdr5∆) | protein stability index (san1∆) | protein stability index (ubr1∆)
28 | QTKRWPTMYTRLCICSG [SIN4] | 1.4 ± 0.039 | 1.48 ± 0.038 | 1.51 ± 0.078 | 1.58 ± 0.03
29 | QTLKGVGVENNGQYAAF [RPC37] | 3.12 ± 0.14 | 3.31 ± 0.098 | 2.9 ± 0.18 | 2.94 ± 0.2
30 | QTLSEKEYQCSAVIIDE [YIL149C/MLP2] | 2.64 ± 0.11 | 3.03 ± 0.098 | 3.15 ± 0.082 | 2.88 ± 0.054
31 | QTMQLIKNVQDLLILTR [SRB6] | 1.51 ± 0.087 | 1.8 ± 0.091 | – | 2.09 ± 0.086
32 | QVASIIESFVELGVSIY [NUT2] | 2.77 ± 0.13 | 2.98 ± 0.17 | 2.2 ± 0.13 | 1.76 ± 0.045
33 | QVATKYASLKLPNQIPG [YMR129W/POM152] | 1.69 ± 0.038 | 1.68 ± 0.041 | 1.67 ± 0.052 | 1.84 ± 0.029
34 | QVEKLGKKMEARGQSIW [RPN9] | 1.34 ± 0.15 | 1.14 ± 0.081 | – | 1.18 ± 0.22
35 | QVKKPRKQRVKKKTKKE [SWI1] | 3.13 ± 0.24 | 3.37 ± 0.13 | 3.5 ± 0.12 | 3.38 ± 0.1
36 | QVPDSLDDQIFVCEKSI [RPN6] | 3.01 ± 0.2 | 3.19 ± 0.1 | 2.95 ± 0.084 | 2.92 ± 0.13
37 | QVRRDIPSAAFNFFEPI [YMR129W/POM152] | 1.9 ± 0.036 | 2.23 ± 0.041 | 1.96 ± 0.049 | 2.15 ± 0.031
38 | QVSINSNKILVYESEME [YIL149C/MLP2] | 2.3 ± 0.11 | 3 ± 0.16 | 1.71 ± 0.21 | 2.92 ± 0.16
39 | QVVTTVASQSPHATATE [SNF6] | 2.56 ± 0.11 | 2.88 ± 0.079 | 2.6 ± 0.096 | 2.79 ± 0.047
40 | QVVVDAITNTGPREDTT [RPS5] | 2.95 ± 0.064 | 2.95 ± 0.058 | 2.82 ± 0.064 | 2.73 ± 0.042
41 | QWLNNALKRSYGIFGEG [POP8] | 2.8 ± 0.08 | 3.02 ± 0.059 | 3.08 ± 0.07 | 3.15 ± 0.071
42 | QYATVSKTHKTVSRAYG [RPL34A] | 2.05 ± 0.069 | 2.31 ± 0.055 | 2.41 ± 0.065 | 2.34 ± 0.06
43 | RAASIRARVKAFPKDDR [RPL3] | 1.22 ± 0.035 | 1.46 ± 0.051 | 1.27 ± 0.078 | 1.5 ± 0.039
44 | RADTDLAMNDDDFLSKK [SNF2] | 3.35 ± 0.094 | 3.59 ± 0.079 | 3.22 ± 0.076 | 3.42 ± 0.067
45 | RAGVTHVLSRLSYISAL [RET1] | 1.47 ± 0.074 | 1.26 ± 0.068 | 1.22 ± 0.11 | 1.23 ± 0.081
46 | RAINKVLCTRLRLSNFF [SIR2] | 1.72 ± 0.059 | 1.3 ± 0.059 | 1.18 ± 0.12 | 1.08 ± 0.034
47 | RAQVLSLGDGTNYYLTT [CSL4] | 2.6 ± 0.061 | 2.66 ± 0.05 | 2.79 ± 0.048 | 3.08 ± 0.072
48 | RARKDRMRVSVLEKYEV [SSN3] | 2.02 ± 0.11 | 2.65 ± 0.089 | 2.19 ± 0.13 | 1.97 ± 0.039
49 | RATTYEKLTMVFQDNVY [SIN4] | 2.2 ± 0.065 | 2.48 ± 0.051 | 2.21 ± 0.11 | 2.53 ± 0.057
50 | RDDALVVETITSLLNKV [RRP42] | 2.88 ± 0.071 | 2.83 ± 0.048 | 3.1 ± 0.054 | 3.06 ± 0.045
51 | RDEMSKAELPQWYTLQS [MED8] | 2.92 ± 0.05 | 3.12 ± 0.043 | 2.87 ± 0.038 | 3.01 ± 0.043
52 | RDVMCTDGVIGSRTTTN [RPO31] | 3.2 ± 0.11 | 3.48 ± 0.084 | 3.16 ± 0.084 | 3.16 ± 0.052
53 | RDYQRINKNSKIALREY [POP4] | 2.77 ± 0.081 | 2.29 ± 0.053 | 2.69 ± 0.076 | 2.73 ± 0.063
